Measurements from patent publication US20190160028.

Target: His-tagged DENV2 NS2B protein (His-NS2B) (aa 48-95)

B1: His-tagged maltose-binding protein (MBP) fused to DENV2 NS3 protein (His-MBP-NS3) (protein)
chain: AGVLWDVPSPPPMGKAELEDGAYRIKQKGILGYSQIGAGVYKEGTFHTMWHVTRGAVLMHKGKRIEPSWADVKKDLISYGGGWKLEGEWKEGEEVQVLALEPGKNPRAVQTKPGLFKTNAGTIGAVSLDFSPGTSGSPIIDKKGKVVGLYGNGVVTRSGAYVSAIAQTEKSIEDNPEIE
- transactivation (protease activity, Abz substrate at 200 µM; NS3 150 nM, NS2B 1 µM): Both soluble MBP-NS3 fusion protein and refolded NS3 can be trans-activated by soluble His-NS2B, and have similar activities

B2: refolded His-NS3 (protein)
chain: B1 chain
- transactivation (protease activity, Abz substrate at 200 µM; NS3 150 nM, NS2B 1 µM): Both soluble MBP-NS3 fusion protein and refolded NS3 can be trans-activated by soluble His-NS2B, and have similar activities
